Measured values reported in IntAct's records for PubMed 20594350.

B1: Cell division cycle and apoptosis regulator protein 1 (Homo sapiens), Q8IX12 (parent)
chain: MAQFGGQKNPPWATQFTATAVSQPAALGVQQPSLLGASPTIYTQQTALAAAGLTTQTPANYQLTQTAALQQQAAAAAAALQQQYSQPQQALYSVQQQLQQPQQTLLTQPAVALPTSLSLSTPQPTAQITVSYPTPRSSQQQTQPQKQRVFTGVVTKLHDTFGFVDEDVFFQLSAVKGKTPQVGDRVLVEATYNPNMPFKWNAQRIQTLPNQNQSQTQPLLKTPPAVLQPIAPQTTFGVQTQPQPQSLLQAQISAASITPLLQTQPQPLLQQPQQKAGLLQPPVRIVSQPQPARRLDPPSRFSGRNDRGDQVPNRKDDRSRERERERRRSRERSPQRKRSRERSPRRERERSPRRVRRVVPRYTVQFSKFSLDCPSCDMMELRRRYQNLYIPSDFFDAQFTWVDAFPLSRPFQLGNYCNFYVMHREVESLEKNMAILDPPDADHLYSAKVMLMASPSMEDLYHKSCALAEDPQELRDGFQHPARLVKFLVGMKGKDEAMAIGGHWSPSLDGPDPEKDPSVLIKTAIRCCKALTGIDLSVCTQWYRFAEIRYHRPEETHKGRTVPAHVETVVLFFPDVWHCLPTRSEWETLSRGYKQQLVEKLQGERKEADGEQDEEEKDDGEAKEISTPTHWSKLDPKTMKVNDLRKELESRALSSKGLKSQLIARLTKQLKVEEQKEEQKELEKSEKEEDEDDDRKSEDDKEEEERKRQEEIERQRRERRYILPDEPAIIVHPNWAAKSGKFDCSIMSLSVLLDYRLEDNKEHSFEVSLFAELFNEMLQRDFGVRIYKSLLSLPEKEDKKEKDKKSKKDERKDKKEERDDETDEPKPKRRKSGDDKDKKEDRDERKKEDKRKDDSKDDDETEEDNNQDEYDPMEAEEAEDEEDDRDEEEMTKRDDKRDINRYCKERPSKDKEKEKTQMITINRDLLMAFVYFDQSHCGYLLEKDLEEILYTLGLHLSRAQVKKLLNKVVLRESCFYRKLTDTSKDEENHEESESLQEDMLGNRLLLPTPTVKQESKDVEENVGLIVYNGAMVDVGSLLQKLEKSEKVRAEVEQKLQLLEEKTDEDEKTILNLENSNKSLSGELREVKKDLSQLQENLKISENMNLQFENQMNKTIRNLSTVMDEIHTVLKKDNVKNEDKDQKSKENGASV

Variants of: B1
Conditions: with wwtr1_mouse Wwtr1, Q9EPK5
Chain of wwtr1_mouse Wwtr1, Q9EPK5 (Q9EPK5 whole entry): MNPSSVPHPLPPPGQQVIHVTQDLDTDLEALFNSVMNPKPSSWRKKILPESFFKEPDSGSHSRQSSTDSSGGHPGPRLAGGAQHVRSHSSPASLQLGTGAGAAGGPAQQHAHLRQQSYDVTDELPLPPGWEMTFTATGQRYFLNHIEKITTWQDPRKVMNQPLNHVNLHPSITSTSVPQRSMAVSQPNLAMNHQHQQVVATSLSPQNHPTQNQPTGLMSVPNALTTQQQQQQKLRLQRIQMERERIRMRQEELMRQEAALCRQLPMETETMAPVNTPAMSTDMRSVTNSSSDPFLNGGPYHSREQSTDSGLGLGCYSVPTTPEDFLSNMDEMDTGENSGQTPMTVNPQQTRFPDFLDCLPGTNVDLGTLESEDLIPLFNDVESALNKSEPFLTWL

Variant	effect of a mutation on the interaction
T667D	increasing interaction
T667A	decreasing interaction
